Key:
Assay in all cases: spectrophotometric oxidation, Michaelis-Menten fit with uncompetitive substrate inhibition
B. coagulans LMCO (CotA) = target: T1, B. coagulans LMCO (CotA) (Heyndrickxia coagulans, UniProt A0AAN0WB15); type: biochemical; details: 30 °C
T1 construct: gene SB48_HM08orf01352
T1 sequence (A0AAN0WB15 1-522): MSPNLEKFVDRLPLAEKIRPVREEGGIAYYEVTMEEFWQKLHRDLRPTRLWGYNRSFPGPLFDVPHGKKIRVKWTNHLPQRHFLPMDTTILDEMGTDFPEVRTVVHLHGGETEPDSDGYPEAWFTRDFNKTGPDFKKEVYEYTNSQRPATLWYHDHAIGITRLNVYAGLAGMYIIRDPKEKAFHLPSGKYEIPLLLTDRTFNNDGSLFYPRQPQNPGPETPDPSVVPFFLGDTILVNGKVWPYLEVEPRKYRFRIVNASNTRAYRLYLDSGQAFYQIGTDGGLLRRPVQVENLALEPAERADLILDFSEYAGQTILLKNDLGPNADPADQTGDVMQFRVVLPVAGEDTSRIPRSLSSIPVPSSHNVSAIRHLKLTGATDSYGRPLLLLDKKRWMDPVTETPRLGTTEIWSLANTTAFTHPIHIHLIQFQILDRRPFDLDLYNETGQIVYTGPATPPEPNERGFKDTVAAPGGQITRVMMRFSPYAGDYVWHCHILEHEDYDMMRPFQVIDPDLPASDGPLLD
Source text: spectrophotometric oxidation, Michaelis-Menten fit with uncompetitive substrate inhibition on B. coagulans LMCO (CotA)

[1] = substrate: CCn1c(=NN=c2sc3cc(S(=O)(=O)O)ccc3n2CC)sc2cc(S(=O)(=O)O)ccc21; type: biochemical, Shouchella clausii; details: pH 4.0, McIlvaine buffer, 30 °C, pH 4.0
Source text: (§1) spectrophotometric oxidation, Michaelis-Menten fit with uncompetitive substrate inhibition on B. clausii LMCO (CotA)

[2] = substrate: COc1cccc(OC)c1O; type: biochemical, Shouchella clausii; details: pH 8.0, McIlvaine buffer, 30 °C, pH 8.0
Source text: as §1

## COc1cccc(OC)c1O [2,6-DMP, 2,6-dimethoxyphenol]
B. coagulans LMCO (CotA); pH 7.5, McIlvaine buffer
  B. coagulans: 36 ± 9.8 mM

## CCn1c(=NN=c2sc3cc(S(=O)(=O)O)ccc3n2CC)sc2cc(S(=O)(=O)O)ccc21 [ABTS, 2′-azino-bis(3-ethylbenzthiazoline-6-sulphonic acid)]
B. coagulans LMCO (CotA); pH 4.0, McIlvaine buffer
  B. coagulans: 0.94 ± 0.11 mM

B1: B. clausii LMCO (CotA) (Shouchella clausii KSM-K16) (protein)
chain: MELEKFVDPMPIMKTAIPKKTSKDGDYYEIEMKEFSQKLHRDLNPTRLWGYDGQFPGPTIEVMRGKPARIKWMNNLPDTHFLPIDRSIHHVAHEPEVRTVVHLHGSETTPASDGYPEAWFTKDFAEVGSFFEQETYEYPNDQRAATLWYHDHAMGITRLNVYAGLSGLYIIRDPREEQLNLPKGEFDIPLLIQDRSFNDDGSLFYPAQPANPAPNLPNPSVLPFFVGDTILVNGKVWPYLQVEPRKYRFRILNGSNSRSYQLALDSEAPFYQIASDGGLLRRTVSLQAFDIRPAERIEAIIDFSKFEGQTITLKNNASTDATADVMQFQVVLPLSGEDTSIIPQNLSYIPSLQQNDVKRIRNLKISGTTDEYGRPLLLLNNKLWSDPVEEKPCLGTTEIWSFVNVTNVPHPMHIHLVQFQLLDHRAFNVELYNENGQIELVGPTIPPKINERGWKDTITAPAGQITRVIARFAPFSGYYVWHCHILEHEDYDMMRPFVVIDPKTEKERR
[1]
  Km: 0.132 ± 0.011 mM
  kcat: 90 ± 2.3 s⁻¹
[2]
  Km: 8.535 ± 2.394 mM
  kcat: 65 ± 15.2 s⁻¹

From paper PMC4464401, “Biochemical properties and yields of diverse bacterial laccase-like multicopper oxidases expressed in Escherichia coli” (Scientific Reports, 2015)
